From patent US20240025971A1

Molecular target: SARS-CoV-2 Wuhan D614G full-length Spike protein (SARS-CoV-2) (UniProt P0DTC2)
Assay: cell-based or functional assay

Substance: Anti-Nucleocapsid (Neg Control) (antibody)
- Pseudovirus Neutralization: > 50 µg/mL
